Test system: MS2 coat protein
Assay: apparent KD of MS2 coat protein; designed switch direction (-1 OFF switch, 1 ON switch): 1; higher = weaker reporter binding
In short: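 Apparent KD, taken as the median over clusters for each design, was obtained by curve-fitting normalised cluster fluorescence. Designed RNA switches had been transcribed on Illumina chips by stalled E. coli RNA polymerase and titrated with SNAP-549-labelled MS2 coat protein, doubling from 0.7 or 1.5 nM to 3 µM.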

[1] = input ligand: microRNA oligo, concentration not stated
[2] = Eterna round: R95, input ligand: FMN 200 uM
[3] = Eterna round: R95, input ligand: microRNA oligo, concentration not stated
[4] = Eterna round: R95, input ligand: none

Sequence	apparent KD of MS2 coat protein (input ligand: FMN 200 uM) [nM]	apparent KD of MS2 coat protein [1] [nM]	apparent KD of MS2 coat protein (input ligand: none) [nM]	apparent KD of MS2 coat protein [2] [nM]	apparent KD of MS2 coat protein [3] [nM]	apparent KD of MS2 coat protein [4] [nM]
AAUCAACGCCGAGGAUAUCGGCCUACAUGAGGAUCACCCAUGUUGGGACAUAAAUUAAUCUCGGCUGAGAAGGCGGGAGUUGAC [Eternabot solution 38] (Eterna round: R96, puzzle: Same State NG 2)	23	13.3	19.9			
AUAAAACAUGAGGAUCACCCAUGUCAACAAAGUCGAGGAUAUGGGCAAAUAAAAUAAGAACCAGAAGGCGAUUAAU [salish99_ss1_r3_035] (puzzle: Same State 1)				23.4	97.3	99
GUGGUCAGACAUGAGGAUCACCCAUGUGGAAUAAAUAAGGUUUAGGAUAUGGAAUAUAGGAUAUACCAGAAGGAAGGGUUGGUG (Eterna round: R96, puzzle: Same State NG 3)		95.2				
CUGAGCGAUCGAGGAUAUCACGUCGAUUAGACGUGAGAAGGCGAUCAUAACAUGAGGAUCACCCAUGUAUUACAUGAAGCUCAG [SSNG1/4-A2] (Eterna round: R96, puzzle: Same State NG 1)	17.1	12.9	15.8			
AGAAAAGUUUACGAGGAUAUGUUCCGCAUAACAUGAGGAUCACCCAUGUGAACAAGAAAGGCGACGCAGAAGGCGUGAGCAAAAG [Mat - Same State 2 - Mod of UCT - D98] (puzzle: Same State 2)				38.8	82.1	116
ACAUGAGAUUGAGGAUAUAUUGUACCUACAUGUGACAUGAGGAUCACCCAUGUGGUAAGUAUGACAUAGAAGGCAAAGAUAUGU [Equivalance 81 - Jieux - Same State NG 2] (Eterna round: R96, puzzle: Same State NG 2)	87.1	54.1	74.4			
AUUAUUAAUGCAGGAUAUGAUUAACAUGAGGAUCACCCAUGUGGUGUUGUGAGUAAGGAGAGUGAUCAGAAGGGCAUCUUUUUU [JMF's solution 10] (Eterna round: R96, puzzle: Same State NG 2)	470	312	359			
AUGCCCGUAGCACAGGAUAUCCGAGGCAAAACAUGAGGAUCACCCAUGUCAAACGAAAAUCCGAAGGAGAAGGGUGAACGGGCUC [Xeisquorat] (puzzle: Same State 2)				12	11.8	9.59
GGUACAAAUACAGGAUAUGCUAUCCUUUGGGUAGCAGAAGGGUGGUAACAUGAGGAUCACCCAUGUGUGCCAGGGCGUGAGCCC [JL SSNG1 1.98] (Eterna round: R96, puzzle: Same State NG 1)	387	206	657			
UGGUACAUGAGAGGAUAUGGGUAGAUGACAUGAGGAUCACCCAUGUUAAAGUCCGAAAGGACAUCCUAGAAGGCUCAUGUACCU [MOD of JL SSNG1 3.99] (Eterna round: R96, puzzle: Same State NG 2)	11	27	27.7			
UCUCGGGUCGUAGGAUAUGUAGGAUAUGUACAUGAGGAUCACCCAUGUCUACCAGAGACAGAAGGACAGAAGGACGAGCCGAGC [pwkr ssNG2 2FMN 1F5s.7] (Eterna round: R96, puzzle: Same State NG 2)	19.5	19	36.3			
UUGUGUUUGCGAGGAUAUCGUUUGUUGAAGUUACGAGAAGGCGCUCUCAUUACAUGAGGAUCACCCAUGUCUUUGAUGCAUGAU [JR_SSNG1_Sub071] (Eterna round: R96, puzzle: Same State NG 1)	54.7	44.5	68.2			
UACAAUCUAUCUGAGGAUAUCAUGAAUUAUACAUGAGGAUCACCCAUGUGCAGGAAAACUGCAUAUGAGAAGGCAGAUAGAUUGU [salish99_ss2_r3_062] (puzzle: Same State 2)				63.4	43.6	183
